Test results taken from patent publication US20180273595A1 (REGENTS OF THE UNIVERSITY OF MICHIGAN, published 2018).
Where a chain is given by its changes, count along the chain named. Values belong to the binder of their own block, whether it stands above or below them. Where no end group is shown, it is not given here. The star is where a group is joined. Biotin = O=C1N[C@H]2[C@H](CS[C@H]2CCCCC(=O)*)N1

What was measured:
[1] = target: T1, ERG_Y373A (purified recombinant ERG with Y373A) (UniProt P11308 1-479, limits assumed, biotinylated for OctetRED); test: pull-down of purified recombinant proteins with biotin peptide
T1 construct: also called Y373A mutation
T1 sequence (looked up): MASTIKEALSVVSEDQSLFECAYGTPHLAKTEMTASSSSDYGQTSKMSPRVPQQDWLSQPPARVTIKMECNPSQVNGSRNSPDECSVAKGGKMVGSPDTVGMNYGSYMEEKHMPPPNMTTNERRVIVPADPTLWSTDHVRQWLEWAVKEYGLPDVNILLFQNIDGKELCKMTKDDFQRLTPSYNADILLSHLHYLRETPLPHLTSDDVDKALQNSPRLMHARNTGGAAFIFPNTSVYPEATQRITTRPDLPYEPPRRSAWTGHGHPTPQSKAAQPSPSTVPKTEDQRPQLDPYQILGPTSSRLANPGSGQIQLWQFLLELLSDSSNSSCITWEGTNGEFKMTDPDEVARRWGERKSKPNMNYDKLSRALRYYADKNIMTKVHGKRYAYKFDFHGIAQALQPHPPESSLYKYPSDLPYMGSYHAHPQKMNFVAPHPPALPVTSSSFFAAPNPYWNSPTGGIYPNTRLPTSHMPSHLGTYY

[2] = target: T2, recombinant His-tagged full-length ERG (UniProt P11308 1-479, biotinylated with NHS-PEG4 biotin for the OctetRED assays); test: pull-down of purified recombinant protein with biotinylated peptide, immunoblot
T2 construct: mature; Baculovirus expression in SF9 cells, Ni-NTA purified; also called wild-type ERG; wtERG; not shown: His tag
T2 sequence (looked up): T1 sequence (looked up) with A373Y

[3] = target: T3, endogenous ETV1 protein of LNCaP cells (UniProt P50549 1-477, limits assumed); test: pull-down of cell lysate with biotinylated peptide, immunoblot αETV1
T3 sequence (looked up): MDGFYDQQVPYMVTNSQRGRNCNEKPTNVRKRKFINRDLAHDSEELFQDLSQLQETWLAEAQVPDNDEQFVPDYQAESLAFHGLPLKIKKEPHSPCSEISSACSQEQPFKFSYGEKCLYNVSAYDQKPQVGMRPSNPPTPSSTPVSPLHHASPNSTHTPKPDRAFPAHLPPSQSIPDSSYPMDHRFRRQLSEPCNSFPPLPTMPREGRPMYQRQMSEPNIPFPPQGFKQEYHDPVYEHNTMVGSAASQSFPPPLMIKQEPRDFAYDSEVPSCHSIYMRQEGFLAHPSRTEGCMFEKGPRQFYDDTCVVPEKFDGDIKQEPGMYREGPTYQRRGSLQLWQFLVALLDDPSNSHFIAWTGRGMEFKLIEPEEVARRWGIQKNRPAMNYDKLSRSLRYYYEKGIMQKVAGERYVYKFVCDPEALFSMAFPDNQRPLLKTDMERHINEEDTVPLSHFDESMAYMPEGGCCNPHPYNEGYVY

[4] = target: T4, TMPRSS2:ERG gene fusion product, endogenous in VCaP cells (UniProt P11308 33-479, limits assumed); test: pull-down of VCaP lysate with biotinylated peptide, ERG immunoblot
T4 construct: In cell lysates, in cells or in xenograft tumors; also called endogenous ERG; VCaP ERG
T4 sequence (looked up): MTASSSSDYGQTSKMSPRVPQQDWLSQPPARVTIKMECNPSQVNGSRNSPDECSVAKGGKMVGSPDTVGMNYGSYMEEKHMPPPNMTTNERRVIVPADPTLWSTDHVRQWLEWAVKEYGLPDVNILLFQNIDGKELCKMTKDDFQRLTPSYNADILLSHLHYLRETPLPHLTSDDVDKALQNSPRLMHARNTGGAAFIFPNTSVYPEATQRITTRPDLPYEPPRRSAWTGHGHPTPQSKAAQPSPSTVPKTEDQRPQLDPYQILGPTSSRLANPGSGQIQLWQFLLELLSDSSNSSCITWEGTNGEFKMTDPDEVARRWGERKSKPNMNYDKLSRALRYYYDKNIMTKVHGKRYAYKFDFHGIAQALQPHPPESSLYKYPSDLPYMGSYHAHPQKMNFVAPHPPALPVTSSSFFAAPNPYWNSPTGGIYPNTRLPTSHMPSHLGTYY

[5] = target: T5, wild-type ERG endogenous in MS1 mouse endothelial cells (mouse, UniProt P81270 1-486, limits assumed); test: pull-down of whole cell lysate with biotinylated peptide, WB: αERG
T5 construct: also called mERG; MS1 ERG
T5 sequence (looked up): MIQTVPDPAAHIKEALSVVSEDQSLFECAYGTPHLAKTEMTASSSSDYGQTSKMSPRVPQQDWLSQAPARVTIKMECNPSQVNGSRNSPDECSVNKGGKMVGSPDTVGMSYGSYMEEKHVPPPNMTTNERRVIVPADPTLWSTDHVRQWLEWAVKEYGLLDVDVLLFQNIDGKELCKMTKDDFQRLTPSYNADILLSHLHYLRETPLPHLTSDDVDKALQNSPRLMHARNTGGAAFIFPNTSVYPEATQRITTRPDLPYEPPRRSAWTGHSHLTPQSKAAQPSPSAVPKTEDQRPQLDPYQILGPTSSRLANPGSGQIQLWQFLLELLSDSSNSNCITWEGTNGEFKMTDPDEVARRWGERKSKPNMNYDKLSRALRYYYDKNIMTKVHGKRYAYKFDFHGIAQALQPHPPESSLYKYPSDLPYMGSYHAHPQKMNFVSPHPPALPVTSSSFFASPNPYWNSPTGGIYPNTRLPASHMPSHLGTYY

[6] = target: T6, wild-type ERG endogenous in HUVEC cells (human, UniProt P11308 1-479, limits assumed); test: as above
T6 construct: also called HUVEC ERG
T6 sequence (looked up): T1 sequence (looked up) with A373Y

[7] = target: T7, Halo-tagged full-length ETV1 (UniProt P50549 1-477); test: pull-down of in vitro translated Halo-tagged protein with biotinylated peptide, anti-Halo immunoblot [cont'd]
T7 construct: mature; not shown: Halo-tag at the N-terminus
T7 sequence (looked up): T3 sequence (looked up)

[8] = target: T8, Halo-tagged full-length Fli1 (UniProt Q01543 1-452); test: as above
T8 construct: mature; not shown: Halo-tag at the N-terminus
T8 sequence (looked up): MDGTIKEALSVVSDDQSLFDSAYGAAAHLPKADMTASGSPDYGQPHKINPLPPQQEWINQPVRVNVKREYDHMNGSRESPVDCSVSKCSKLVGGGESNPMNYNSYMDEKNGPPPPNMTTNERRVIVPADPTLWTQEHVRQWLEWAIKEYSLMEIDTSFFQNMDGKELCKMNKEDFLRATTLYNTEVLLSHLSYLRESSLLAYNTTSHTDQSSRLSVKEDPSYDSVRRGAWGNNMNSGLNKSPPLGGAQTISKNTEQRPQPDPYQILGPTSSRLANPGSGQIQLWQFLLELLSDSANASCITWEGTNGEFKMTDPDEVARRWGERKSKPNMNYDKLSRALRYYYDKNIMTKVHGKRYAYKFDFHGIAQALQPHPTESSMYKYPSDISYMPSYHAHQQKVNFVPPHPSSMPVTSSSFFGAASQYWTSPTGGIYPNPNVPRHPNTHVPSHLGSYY

[9] = target: T9, Halo-tagged full-length ERG (UniProt P11308 1-479); test: as above
T9 construct: mature; In vitro transcription/translation in wheat germ lysate; also called Halo-ERG fusion protein; not shown: HaloTag (about 35 kDa), N-terminal
T9 sequence (looked up): T1 sequence (looked up) with A373Y

[10] = target: T10, Halo-tagged full-length ETV6 (UniProt P41212 1-452); test: as above
T10 construct: mature; not shown: Halo-tag at the N-terminus
T10 sequence (looked up): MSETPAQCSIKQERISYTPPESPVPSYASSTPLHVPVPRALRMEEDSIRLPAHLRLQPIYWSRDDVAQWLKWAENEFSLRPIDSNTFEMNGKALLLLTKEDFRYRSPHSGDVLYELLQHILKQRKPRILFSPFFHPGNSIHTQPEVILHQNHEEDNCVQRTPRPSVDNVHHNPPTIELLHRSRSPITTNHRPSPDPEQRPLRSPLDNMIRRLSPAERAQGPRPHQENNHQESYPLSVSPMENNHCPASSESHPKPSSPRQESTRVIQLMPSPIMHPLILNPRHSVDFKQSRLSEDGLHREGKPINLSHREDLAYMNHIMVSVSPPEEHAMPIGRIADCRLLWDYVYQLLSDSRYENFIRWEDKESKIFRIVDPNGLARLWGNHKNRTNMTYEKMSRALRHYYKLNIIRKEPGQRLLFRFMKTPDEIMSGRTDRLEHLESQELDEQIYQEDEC

[11] = target: T11, Halo-tagged full-length ETS1 (UniProt P14921 1-441); test: as above
T11 construct: mature; not shown: Halo-tag at the N-terminus
T11 sequence (looked up): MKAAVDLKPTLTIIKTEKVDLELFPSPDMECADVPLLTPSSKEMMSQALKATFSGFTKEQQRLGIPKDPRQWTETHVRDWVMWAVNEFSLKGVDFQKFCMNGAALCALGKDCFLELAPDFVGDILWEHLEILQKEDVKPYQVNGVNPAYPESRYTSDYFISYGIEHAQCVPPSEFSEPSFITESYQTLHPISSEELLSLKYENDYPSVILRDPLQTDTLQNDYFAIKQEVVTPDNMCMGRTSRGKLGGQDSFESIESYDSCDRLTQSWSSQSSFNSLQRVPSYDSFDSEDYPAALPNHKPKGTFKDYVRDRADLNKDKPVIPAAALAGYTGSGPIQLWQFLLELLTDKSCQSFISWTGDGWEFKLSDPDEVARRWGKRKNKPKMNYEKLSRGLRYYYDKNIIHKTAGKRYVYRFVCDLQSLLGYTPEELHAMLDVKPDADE

[12] = target: T12, Halo-tagged full-length Spi1 (UniProt P17947 1-270); test: pull-down of Halo-tagged proteins with biotin peptide
T12 construct: mature; not shown: Halo-tag at the N-terminus

[13] = target: T13, Halo-tagged ERG mutant Y373A (UniProt P11308 1-479); test: as above
T13 construct: mature; also called ERG (Y373A); negative control ERG (Y373A); not shown: Halo-tag at the N-terminus
T13 sequence (looked up): T1 sequence (looked up)

[14] = target: T2, recombinant His-tagged full-length ERG; test: binding assay of capped EIP1 variants (FIG. 13); capped EIP1, L5E
[15] = target: T2, recombinant His-tagged full-length ERG; test: Kd table of synthetic peptides on ERG; assay not given
[16] = target: T2, recombinant His-tagged full-length ERG; test: binding assay of capped EIP1 variants (FIG. 13); capped EIP1, Y4E
[17] = target: T2, recombinant His-tagged full-length ERG; test: binding assay of capped EIP1 variants (FIG. 13); capped EIP1, Y4K

binding result [2]: no binding
binding result [3]: no binding (tested: 50 µM)
binding result [4]: no binding (tested: 20 µM)
binding result [5]: no binding
binding result [6]: no binding
Binder: LPPALFT (also: biotin, position not given here, also called biotin-muEIP1) [biotinylated muEIP1 peptide]

binding result [7]: no binding
binding result [8]: no binding
binding result [9]: no binding
binding result [10]: no binding
binding result [11]: no binding
B2: Biotin-HSKINPT (peptide)
peptide: Biotin-HSKINPT
notes: Control of the pull-down with Biotin-LSFGSLP; also called control peptide Biotin-HSKINPT

binding result [12]: no binding
binding result [13]: no binding
Binder: Biotin-LSFGSLP (also called biotin-EIP2) [biotinylated EIP2 peptide (Biotin-LSFGSLP)]

Second part, the binder before the results:

B1: biotinylated EIP1 peptide (Biotin-LPPYLFT) (peptide)
peptide: Biotin-LPPYLFT
notes: also called Biotin-EIP1; biotin-conjugated EIP1
binding result [1]: no binding

Binder: Ac-LPPYEFT-NH2 [capped EIP1 with L at position five mutated to E]
Kd [14]: 5.1 µM
Kd [15]: 5.09 µM

Binder: Ac-LPPELFT-NH2 [capped EIP1 with Y at position four mutated to E]
Kd [16]: 3.6 µM
Kd [15]: 3.6 µM

Binder: Ac-LPPKLFT-NH2 [capped EIP1 with Y at position four mutated to K]
Kd [17]: 4.3 µM
Kd [15]: 4.27 µM
